According to US20150355179:

Legend:
[1] = test system: GST-CDKACTH1 labelled with Cy3 (CDKACTH1-Cy3)
[2] = test system: CDKACT-WWH1 biosensor labelled with Cy3
[3] = test system: CDKACT-WWH1 biosensor labelled with Cy5
Sequence of CDKACT-WWH1 biosensor labelled with Cy5 (chain, as listed by the source): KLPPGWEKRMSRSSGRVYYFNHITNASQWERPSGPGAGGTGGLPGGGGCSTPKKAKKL

Sequence of unlabelled GST-CDKACTH1 (chain, as listed by the source): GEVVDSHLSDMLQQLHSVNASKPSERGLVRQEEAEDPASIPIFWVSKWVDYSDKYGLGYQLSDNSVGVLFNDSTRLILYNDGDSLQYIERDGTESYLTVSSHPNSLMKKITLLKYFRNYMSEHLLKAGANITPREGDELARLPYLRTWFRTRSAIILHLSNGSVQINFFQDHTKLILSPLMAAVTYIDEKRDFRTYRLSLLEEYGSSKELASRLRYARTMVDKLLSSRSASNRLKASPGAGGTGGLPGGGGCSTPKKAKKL

Substance: recombinant CDK1/Cyclin B (GST-CDK1/CIV Cyclin B)
- real-time fluorescence kinase assay (Cy3 fluorescence) [1]: CDK1/Cyclin B indeed phosphorylated CDKACTH1, however in the same conditions as CDK2/Cyclin A it did not induce the same response
- radioactive kinase assay (phosphorylation, 30 min at 30 C) (unlabelled GST-CDKACTH1): CDKACT-H1 is phosphorylated by GST-CDK2/Cyclin A and GST-CDK1-Cyclin B in a standard kinase assay

Substance: recombinant active CDK2/Cyclin A (GST-CDK2/CIV complexed with His-Cyclin A)
- real-time fluorescence kinase assay (Cy3 fluorescence) [2]: Both CDKACTH1 and CDKACTWWH1 report on CDK2/CyclinA activity, however CDKACTWWH1 yields greater changes in fluorescence enhancement
- real-time fluorescence kinase assay (Cy5 fluorescence) [3]: CDKACTWWH1, reports on CDK2/CyclinA activity, through significant changes in fluorescence enhancement
- real-time fluorescence kinase assay (Cy3 fluorescence) [1]: Both CDKACTH1 and CDKACTWWH1 report on CDK2/CyclinA activity
- competition in the fluorescence kinase assay (phosphorylation of CDKACTH1-Cy3) (histone H1): histone and unlabelled sensor prevented full phosphorylation of CDKACTH1
- competition in the fluorescence kinase assay (phosphorylation of CDKACTH1-Cy3) (unlabelled GST-CDKACTH1): histone and unlabelled sensor prevented full phosphorylation of CDKACTH1
- radioactive kinase assay (phosphorylation, 30 min at 30 C) (unlabelled GST-CDKACTH1): CDKACT-H1 is phosphorylated by GST-CDK2/Cyclin A and GST-CDK1-Cyclin B in a standard kinase assay
